Experiments:
[1] = biological target: MOD-5014 (FVIIa-CTP3, activated Factor VII-CTP-CTP-CTP) (human) (UniProt P08709); test: cell-based or functional assay
[2] = biological target: NovoSeven (commercial recombinant human FVIIa) (human) (UniProt P08709); test: cell-based or functional assay

Chain of Tissue Factor Pathway Inhibitor (TFPI) (P10646 29-304 limits assumed): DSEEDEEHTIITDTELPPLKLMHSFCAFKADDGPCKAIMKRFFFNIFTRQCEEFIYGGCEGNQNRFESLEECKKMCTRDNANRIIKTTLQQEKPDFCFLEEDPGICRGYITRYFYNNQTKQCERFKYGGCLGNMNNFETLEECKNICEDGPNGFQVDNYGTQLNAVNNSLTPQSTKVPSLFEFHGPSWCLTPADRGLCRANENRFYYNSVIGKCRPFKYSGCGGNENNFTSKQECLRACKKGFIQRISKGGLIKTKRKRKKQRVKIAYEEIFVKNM

Substance: Tissue Factor Pathway Inhibitor (TFPI) (from UniProt P10646 29-304)
- % Inhibition of clotting activity, TFPI 0.625 ng/mL [1]: 15%
- % Inhibition of clotting activity, TFPI 6.25 ng/mL [1]: 15%
- % Inhibition of clotting activity, TFPI 62.5 ng/mL [1]: 29%
- % Inhibition of clotting activity, TFPI 625 ng/mL [1]: 80%
- % Inhibition of clotting activity, TFPI 1250 ng/mL [1]: 89%
- Activity (mU/mL), clotting assay, TFPI 0 ng/mL (no inhibitor) [1]: 66.8 mU/mL
- Activity (mU/mL), clotting assay, TFPI 0.625 ng/mL [1]: 56.7 mU/mL
- Activity (mU/mL), clotting assay, TFPI 6.25 ng/mL [1]: 56.7 mU/mL
- Activity (mU/mL), clotting assay, TFPI 62.5 ng/mL [1]: 47.4 mU/mL
- Activity (mU/mL), clotting assay, TFPI 625 ng/mL [1]: 13.2 mU/mL
- Activity (mU/mL), clotting assay, TFPI 1250 ng/mL [1]: 7.3 mU/mL
- FX activation by MOD-5014 (0.7 ng/ml) + 1 U/µl heparin, TFPI 0.002048 ng/ml [1]: 1.27
- FX activation by MOD-5014 (0.7 ng/ml) + 1 U/µl heparin, TFPI 0.010240 ng/ml [1]: 1.29
- FX activation by MOD-5014 (0.7 ng/ml) + 1 U/µl heparin, TFPI 0.051200 ng/ml [1]: 1.35
- FX activation by MOD-5014 (0.7 ng/ml) + 1 U/µl heparin, TFPI 1.28 ng/ml [1]: 1.26
- FX activation by MOD-5014 (0.7 ng/ml) + 1 U/µl heparin, TFPI 6.40 ng/ml [1]: 1.16
- FX activation by MOD-5014 (0.7 ng/ml) + 1 U/µl heparin, TFPI 32.00 ng/ml [1]: 0.915
- FX activation by MOD-5014 (0.7 ng/ml) + 1 U/µl heparin, TFPI 160.00 ng/ml [1]: 0.539
- FX activation by MOD-5014 (0.7 ng/ml) + 1 U/µl heparin, TFPI 800.00 ng/ml [1]: 0.32
- FX activation by MOD-5014 (0.7 ng/ml) + 1 U/µl heparin, TFPI 4000.00 ng/ml [1]: 0.115
- FX activation by MOD-5014 (0.7 ng/ml) + 1 U/µl heparin, TFPI 20000.00 ng/ml [1]: 0.15
- FX activation by MOD-5014 (0.7 ng/ml), Control [1]: 1.37
- FX activation by MOD-5014 (4 ng/ml), Control (no TFPI) [1]: 1.58
- FX activation by MOD-5014 (4 ng/ml), TFPI 0.002048 ng/ml [1]: 1.65
- FX activation by MOD-5014 (4 ng/ml), TFPI 0.010240 ng/ml [1]: 1.64
- FX activation by MOD-5014 (4 ng/ml), TFPI 0.051200 ng/ml [1]: 1.6
- FX activation by MOD-5014 (4 ng/ml), TFPI 0.2560 ng/ml [1]: 1.62
- FX activation by MOD-5014 (4 ng/ml), TFPI 1.28 ng/ml [1]: 1.56
- FX activation by MOD-5014 (4 ng/ml), TFPI 6.40 ng/ml [1]: 1.54
- FX activation by MOD-5014 (4 ng/ml), TFPI 32.00 ng/ml [1]: 1.47
- FX activation by MOD-5014 (4 ng/ml), TFPI 160.00 ng/ml [1]: 1.14
- FX activation by MOD-5014 (4 ng/ml), TFPI 800.00 ng/ml [1]: 0.836
- FX activation by MOD-5014 (4 ng/ml), TFPI 4000.00 ng/ml [1]: 0.38
- FX activation by MOD-5014 (4 ng/ml), TFPI 20000.00 ng/ml [1]: 0.17
- O.D, FX activation by MOD-5014 (0.69 ng/ml), Control (no TFPI) [1]: 1.51 O.D
- O.D, FX activation by MOD-5014 (0.69 ng/ml), TFPI 0.002048 ng/ml [1]: 1.48 O.D
- O.D, FX activation by MOD-5014 (0.69 ng/ml), TFPI 0.010240 ng/ml [1]: 1.45 O.D
- O.D, FX activation by MOD-5014 (0.69 ng/ml), TFPI 0.051200 ng/ml [1]: 1.45 O.D
- O.D, FX activation by MOD-5014 (0.69 ng/ml), TFPI 0.2560 ng/ml [1]: 1.46 O.D
- O.D, FX activation by MOD-5014 (0.69 ng/ml), TFPI 1.28 ng/ml [1]: 1.39 O.D
- O.D, FX activation by MOD-5014 (0.69 ng/ml), TFPI 6.40 ng/ml [1]: 1.38 O.D
- O.D, FX activation by MOD-5014 (0.69 ng/ml), TFPI 32.00 ng/ml [1]: 1.36 O.D
- O.D, FX activation by MOD-5014 (0.69 ng/ml), TFPI 160.00 ng/ml [1]: 1.11 O.D
- O.D, FX activation by MOD-5014 (0.69 ng/ml), TFPI 800.00 ng/ml [1]: 1.01 O.D
- O.D, FX activation by MOD-5014 (0.69 ng/ml), TFPI 4000.00 ng/ml [1]: 0.691 O.D
- O.D, FX activation by MOD-5014 (0.69 ng/ml), TFPI 20000.00 ng/ml [1]: 0.346 O.D
- % Inhibition of clotting activity, TFPI 0.625 ng/mL [2]: 25%
- % Inhibition of clotting activity, TFPI 6.25 ng/mL [2]: 24%
- % Inhibition of clotting activity, TFPI 62.5 ng/mL [2]: 38%
- % Inhibition of clotting activity, TFPI 625 ng/mL [2]: 87%
- % Inhibition of clotting activity, TFPI 1250 ng/mL [2]: 96%
- Activity (mU/mL), clotting assay, TFPI 0 ng/mL (no inhibitor) [2]: 72.3 mU/mL
- Activity (mU/mL), clotting assay, TFPI 0.625 ng/mL [2]: 54.5 mU/mL
- Activity (mU/mL), clotting assay, TFPI 6.25 ng/mL [2]: 55.3 mU/mL
- Activity (mU/mL), clotting assay, TFPI 62.5 ng/mL [2]: 45 mU/mL
- Activity (mU/mL), clotting assay, TFPI 625 ng/mL [2]: 9.5 mU/mL
- Activity (mU/mL), clotting assay, TFPI 1250 ng/mL [2]: 2.9 mU/mL
- FX activation by NovoSeven (0.7 ng/ml) + 1 U/µl heparin, TFPI 0.002048 ng/ml [2]: 1.33
- FX activation by NovoSeven (0.7 ng/ml) + 1 U/µl heparin, TFPI 0.010240 ng/ml [2]: 1.3
- FX activation by NovoSeven (0.7 ng/ml) + 1 U/µl heparin, TFPI 0.051200 ng/ml [2]: 1.37
- FX activation by NovoSeven (0.7 ng/ml) + 1 U/µl heparin, TFPI 1.28 ng/ml [2]: 1.31
- FX activation by NovoSeven (0.7 ng/ml) + 1 U/µl heparin, TFPI 6.40 ng/ml [2]: 1.21
- FX activation by NovoSeven (0.7 ng/ml) + 1 U/µl heparin, TFPI 32.00 ng/ml [2]: 1.01
- FX activation by NovoSeven (0.7 ng/ml) + 1 U/µl heparin, TFPI 160.00 ng/ml [2]: 0.764
- FX activation by NovoSeven (0.7 ng/ml) + 1 U/µl heparin, TFPI 800.00 ng/ml [2]: 0.409
- FX activation by NovoSeven (0.7 ng/ml) + 1 U/µl heparin, TFPI 4000.00 ng/ml [2]: 0.241
- FX activation by NovoSeven (0.7 ng/ml) + 1 U/µl heparin, TFPI 20000.00 ng/ml [2]: 0.222
- FX activation by NovoSeven (0.7 ng/ml), Control [2]: 1.47
- FX activation by NovoSeven (4 ng/ml), Control (no TFPI) [2]: 1.66
- FX activation by NovoSeven (4 ng/ml), TFPI 0.002048 ng/ml [2]: 1.72
- FX activation by NovoSeven (4 ng/ml), TFPI 0.010240 ng/ml [2]: 1.7
- FX activation by NovoSeven (4 ng/ml), TFPI 0.051200 ng/ml [2]: 1.73
- FX activation by NovoSeven (4 ng/ml), TFPI 0.2560 ng/ml [2]: 1.7
- FX activation by NovoSeven (4 ng/ml), TFPI 1.28 ng/ml [2]: 1.66
- FX activation by NovoSeven (4 ng/ml), TFPI 6.40 ng/ml [2]: 1.59
- FX activation by NovoSeven (4 ng/ml), TFPI 32.00 ng/ml [2]: 1.5
- FX activation by NovoSeven (4 ng/ml), TFPI 160.00 ng/ml [2]: 1.34
- FX activation by NovoSeven (4 ng/ml), TFPI 800.00 ng/ml [2]: 1.02
- FX activation by NovoSeven (4 ng/ml), TFPI 4000.00 ng/ml [2]: 0.406
- FX activation by NovoSeven (4 ng/ml), TFPI 20000.00 ng/ml [2]: 0.206
- O.D, FX activation by NovoSeven (0.64 ng/ml), Control (no TFPI) [2]: 1.51 O.D
- O.D, FX activation by NovoSeven (0.64 ng/ml), TFPI 0.002048 ng/ml [2]: 1.5 O.D
- O.D, FX activation by NovoSeven (0.64 ng/ml), TFPI 0.010240 ng/ml [2]: 1.51 O.D
- O.D, FX activation by NovoSeven (0.64 ng/ml), TFPI 0.051200 ng/ml [2]: 1.52 O.D
- O.D, FX activation by NovoSeven (0.64 ng/ml), TFPI 0.2560 ng/ml [2]: 1.43 O.D
- O.D, FX activation by NovoSeven (0.64 ng/ml), TFPI 1.28 ng/ml [2]: 1.47 O.D
- O.D, FX activation by NovoSeven (0.64 ng/ml), TFPI 6.40 ng/ml [2]: 1.42 O.D
- O.D, FX activation by NovoSeven (0.64 ng/ml), TFPI 32.00 ng/ml [2]: 1.38 O.D
- O.D, FX activation by NovoSeven (0.64 ng/ml), TFPI 160.00 ng/ml [2]: 1.34 O.D
- O.D, FX activation by NovoSeven (0.64 ng/ml), TFPI 800.00 ng/ml [2]: 1.04 O.D
- O.D, FX activation by NovoSeven (0.64 ng/ml), TFPI 4000.00 ng/ml [2]: 0.83 O.D
- O.D, FX activation by NovoSeven (0.64 ng/ml), TFPI 20000.00 ng/ml [2]: 0.429 O.D

— patent publication US20180360932A1 (OPKO BIOLOGICS, published 2018)
